Reference: article PMC13544220, “Glycemic and bodyweight effects of GIPR coding variation reflect differences in surface expression and intrinsic functional impairment” (Science Advances, 2026)
Substitutions are numbered along the chain they refer to. Names may count otherwise.

Key:
Type in all cases: cell-based, human
[1] = system: wild-type and variant SNAP-GIPR; test: Surface SNAP-GIPR expression (SNAP-tag labelling) in AD293 cells; conditions: for AD293 Surface: Fig S3E, mean; for Surface SNAP-GIPR expression: sheet Fig 1C;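 on all read-outs here: scaled to the experimental average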
In short: (§1)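 Surface GIPR is quantified from wide-field images after labelling intact transfected cells with a membrane-impermeant SNAP probe at 500 nM for 10 min at room temperature. Specific signal, corrected for nontransfected cells, is normalized to the experiment-wide average or to wild-type.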

[2] = system: wild-type and variant SNAP-GIPR; test: Surface SNAP-GIPR expression (SNAP-tag labelling) in INS-1 cells; conditions: Fig 4G; Mean
In short: as §1

[3] = system: wild-type and variant SNAP-GIPR; test: Single-concentration GIP cAMP response by HTRF in AD293 cells; conditions: Fig S3F, HTRF, mean;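 further: ratio to experiment-wide average response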
Method: (§2) All variants were tested in parallel on each occasion to control for transfection efficiency differences between experiments.

[4] = system: wild-type and variant SNAP-GIPR; test: Single-concentration GIP cAMP response by HTRF in INS-1 cells; conditions: Fig S3E, mean
Method: as §2

[5] = system: wild-type and variant SNAP-GIPR; test: cADDis cAMP imaging in AD293 cells, ensemble, expression-matched and per decile; conditions: Fig S3F, cADDis, mean;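 further: Ensemble cells as % of IBMX/FSK response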
In short: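 Variants and wild type ran in parallel in transfected AD293 cells carrying cADDis. Single-cell sensor intensity, with nonresponders to IBMX/FSK removed, was paired with SNAP-Surface 647 labeling to allow expression-matched analysis.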

[6] = system: wild-type and variant SNAP-GIPR; test: Constitutive and agonist-mediated internalization, reversible SNAP-tag labelling, AD293 cells; design: key to Internalisation, Vehicle / Internalisation, +GIP / Internalisation, GIP-only: % internalization: residual fluorescence after Mesna vs pre-Mesna; Surface expression: unit not given here; conditions: Mean; for +GIP internalisation (100 nM) / GIP-specific internalisation (100 nM) / Constitutive internalisation (100 nM) / Surface expression: Fig 4E; for +GIP internalisation (100 nM) / GIP-specific internalisation (100 nM): GIP 100 nM; for Internalisation, +GIP / Internalisation, GIP-only / Internalisation, Vehicle: Fig S4C, AD293
In short: (§3)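 Surface SNAP-GIPR signal removable by Mesna was tracked by imaging before and 10 min after treatment in pH 8.6 TNE buffer. Internalization is the Mesna-resistant share of specific fluorescence.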

[7] = system: wild-type and variant SNAP-GIPR; test: Constitutive and agonist-mediated internalization, reversible SNAP-tag labelling, INS-1 cells; design: key to Internalisation, GIP-only / Internalisation, Vehicle / Internalisation, +GIP: % internalization: residual fluorescence after Mesna vs pre-Mesna; conditions: Mean; for +GIP internalisation (100 nM) / GIP-specific internalisation (100 nM) / Constitutive internalisation (100 nM): Fig 4G; for +GIP internalisation (100 nM) / GIP-specific internalisation (100 nM): GIP 100 nM; for Internalisation, +GIP / Internalisation, GIP-only / Internalisation, Vehicle: Fig S4C, INS-1
In short: as §3

[8] = column repeated, paired with cAMP 100 nM

B1: G438S (protein, UniProt P48546 22-466, looked up, variant G438S)
Gastric inhibitory …: RAETGSKGQTAGELYQRWERYRRECQETLAAAEPPSGLACNGSFDMYVCWDYAAPNATARASCPWYLPWHHHVAAGFVLRQCGSDGQWGLWRDHTQCENPEKNEAFLDQRLILERLQVMYTVGYSLSLATLLLALLILSLFRRLHCTRNYIHINLFTSFMLRAAAILSRDRLLPRPGPYLGDQALALWNQALAACRTAQIVTQYCVGANYTWLLVEGVYLHSLLVLVGGSEEGHFRYYLLLGWGAPALFVIPWVIVRYLYENTQCWERNEVKAIWWIIRTPILMTILINFLIFIRILGILLSKLRTRQMRCRDYRLRLARSTLTLVPLLGVHEVVFAPVTEEQARGALRFAKLGFEIFLSSFQGFLVSVLYCFINKEVQSEIRRGWHHCRLRRSLGEEQRQLPERAFRALPSGSGPSEVPTSRGLSSGTLPGPGNEASRELESYC
[1]; [8]
  AD293 Surface: 1.603
[1]; paired with cAMP 100 pM
  AD293 Surface: 1.603
[1]; replicate 1
  Surface SNAP-GIPR expression: 1.682
[1]; replicate 2
  Surface SNAP-GIPR expression: 1.688
[1]; replicate 3
  Surface SNAP-GIPR expression: 1.832
[1]; replicate 4
  Surface SNAP-GIPR expression: 2.161
[1]; replicate 5
  Surface SNAP-GIPR expression: 1.111
[1]; replicate 6
  Surface SNAP-GIPR expression: 1.49
[1]; replicate 7
  Surface SNAP-GIPR expression: 1.615
[1]; replicate 8
  Surface SNAP-GIPR expression: 1.417
[1]; replicate 9
  Surface SNAP-GIPR expression: 1.842
[1]; replicate 10
  Surface SNAP-GIPR expression: 1.526
[1]; replicate 11
  Surface SNAP-GIPR expression: 1.806
[1]; replicate 12
  Surface SNAP-GIPR expression: 1.746
[1]; replicate 13
  Surface SNAP-GIPR expression: 1.595
[1]; replicate 14
  Surface SNAP-GIPR expression: 2.152
[1]; replicate 15
  Surface SNAP-GIPR expression: 1.581
[1]; replicate 16
  Surface SNAP-GIPR expression: 1.661
[1]; replicate 17
  Surface SNAP-GIPR expression: 1.607
[1]; replicate 18
  Surface SNAP-GIPR expression: 1.471
[1]; replicate 19
  Surface SNAP-GIPR expression: 1.527
[1]; replicate 20
  Surface SNAP-GIPR expression: 1.649
[1]; replicate 21
  Surface SNAP-GIPR expression: 1.401
[1]; replicate 22
  Surface SNAP-GIPR expression: 1.64
[1]; replicate 23
  Surface SNAP-GIPR expression: 1.516
[1]; replicate 24
  Surface SNAP-GIPR expression: 1.737
[1]; replicate 25
  Surface SNAP-GIPR expression: 1.567
[1]; replicate 26
  Surface SNAP-GIPR expression: 1.448
[1]; replicate 27
  Surface SNAP-GIPR expression: 1.549
[1]; replicate 28
  Surface SNAP-GIPR expression: 1.925
[1]; replicate 29
  Surface SNAP-GIPR expression: 1.515
[1]; replicate 30
  Surface SNAP-GIPR expression: 1.373
[1]; replicate 31
  Surface SNAP-GIPR expression: 1.117
[1]; replicate 32
  Surface SNAP-GIPR expression: 1.576
[1]; replicate 33
  Surface SNAP-GIPR expression: 1.347
[1]; replicate 34
  Surface SNAP-GIPR expression: 1.595
[1]; replicate 35
  Surface SNAP-GIPR expression: 1.243
[1]; replicate 36
  Surface SNAP-GIPR expression: 1.381
[1]; replicate 37
  Surface SNAP-GIPR expression: 1.612
[1]; replicate 38
  Surface SNAP-GIPR expression: 1.594
[1]; replicate 39
  Surface SNAP-GIPR expression: 1.863
[1]; replicate 40
  Surface SNAP-GIPR expression: 1.797
[1]; replicate 41
  Surface SNAP-GIPR expression: 1.787
[2]
  Surface expression: 1.361
[3]
  AD293 100 pM HTRF: 1.746
  AD293 100 nM HTRF: 1.655
[4]
  INS-1 cAMP (100 nM): 1.306
[5]
  AD293 100 pM cADDis: 35.9341
  AD293 100 nM cADDis: 39.48
[6]
  +GIP internalisation (100 nM): 0.9894
  GIP-specific internalisation (100 nM): 0.334
  Constitutive internalisation (100 nM): 0.6554
  Surface expression: 1.622
  Internalisation, +GIP: 61.1161
  Internalisation, GIP-only: 20.3657
  Internalisation, Vehicle: 40.7504
[7]
  +GIP internalisation (100 nM): 0.7615
  GIP-specific internalisation (100 nM): 0.2318
  Constitutive internalisation (100 nM): 0.5297
  Internalisation, +GIP: 53.475
  Internalisation, GIP-only: 16.2333
  Internalisation, Vehicle: 37.2417

B2: R300W (protein, UniProt P48546 22-466, looked up, variant R300W)
Gastric inhibitory …: B1 Gastric inhibitory … with R279W, S417G
[1]; [8]
  AD293 Surface: 0.7271
[1]; paired with cAMP 100 pM
  AD293 Surface: 0.7271
[1]; replicate 1
  Surface SNAP-GIPR expression: 0.3062
[1]; replicate 2
  Surface SNAP-GIPR expression: 0.3328
[1]; replicate 3
  Surface SNAP-GIPR expression: 0.1592
[1]; replicate 4
  Surface SNAP-GIPR expression: 0.8304
[1]; replicate 5
  Surface SNAP-GIPR expression: 0.6683
[1]; replicate 6
  Surface SNAP-GIPR expression: 0.6889
[1]; replicate 7
  Surface SNAP-GIPR expression: 0.4744
[1]; replicate 8
  Surface SNAP-GIPR expression: 0.7417
[1]; replicate 9
  Surface SNAP-GIPR expression: 0.7319
[1]; replicate 10
  Surface SNAP-GIPR expression: 0.4888
[1]; replicate 11
  Surface SNAP-GIPR expression: 0.5692
[1]; replicate 12
  Surface SNAP-GIPR expression: 0.5524
[1]; replicate 13
  Surface SNAP-GIPR expression: 0.6029
[1]; replicate 14
  Surface SNAP-GIPR expression: 0.8734
[1]; replicate 15
  Surface SNAP-GIPR expression: 0.6318
[1]; replicate 16
  Surface SNAP-GIPR expression: 0.7838
[1]; replicate 17
  Surface SNAP-GIPR expression: 0.7645
[1]; replicate 18
  Surface SNAP-GIPR expression: 0.8288
[1]; replicate 19
  Surface SNAP-GIPR expression: 0.8256
[1]; replicate 20
  Surface SNAP-GIPR expression: 0.8307
[1]; replicate 21
  Surface SNAP-GIPR expression: 0.7929
[1]; replicate 22
  Surface SNAP-GIPR expression: 0.7293
[1]; replicate 23
  Surface SNAP-GIPR expression: 0.8041
[1]; replicate 24
  Surface SNAP-GIPR expression: 0.7665
[1]; replicate 25
  Surface SNAP-GIPR expression: 0.8609
[1]; replicate 26
  Surface SNAP-GIPR expression: 0.8382
[1]; replicate 27
  Surface SNAP-GIPR expression: 0.9176
[1]; replicate 28
  Surface SNAP-GIPR expression: 0.9055
[1]; replicate 29
  Surface SNAP-GIPR expression: 1.047
[1]; replicate 30
  Surface SNAP-GIPR expression: 0.4161
[1]; replicate 31
  Surface SNAP-GIPR expression: 0.3148
[1]; replicate 32
  Surface SNAP-GIPR expression: 0.4777
[1]; replicate 33
  Surface SNAP-GIPR expression: 0.3827
[1]; replicate 34
  Surface SNAP-GIPR expression: 0.923
[1]; replicate 35
  Surface SNAP-GIPR expression: 0.8683
[1]; replicate 36
  Surface SNAP-GIPR expression: 0.9333
[1]; replicate 37
  Surface SNAP-GIPR expression: 0.8174
[1]; replicate 38
  Surface SNAP-GIPR expression: 1.012
[1]; replicate 39
  Surface SNAP-GIPR expression: 1.271
[1]; replicate 40
  Surface SNAP-GIPR expression: 1.105
[1]; replicate 41
  Surface SNAP-GIPR expression: 0.9446
[2]
  Surface expression: 0.9197
[3]
  AD293 100 pM HTRF: 0.5327
  AD293 100 nM HTRF: 1.632
[4]
  INS-1 cAMP (100 nM): 1.326
[5]
  AD293 100 pM cADDis: 30.0031
  AD293 100 nM cADDis: 37.61
[6]
  +GIP internalisation (100 nM): 0.5841
  GIP-specific internalisation (100 nM): 0.1667
  Constitutive internalisation (100 nM): 0.4174
  Surface expression: 1.0064
  Internalisation, +GIP: 57.8459
  Internalisation, GIP-only: 16.6116
  Internalisation, Vehicle: 41.2342
[7]
  +GIP internalisation (100 nM): 0.4496
  GIP-specific internalisation (100 nM): 0.1127
  Constitutive internalisation (100 nM): 0.3368
  Internalisation, +GIP: 49.27
  Internalisation, GIP-only: 12.1983
  Internalisation, Vehicle: 37.0717
